Reference: US20110150870A1 (UNITED STATES OF AMERICA AS REPRESENTED BY TH, published 2011)
Where two headings read alike, the source gives them in different places.

T1: human Fc-NKG2D (human, UniProt P26718 78-216)
T1 construct: range 78-216; Bought from R&D Systems: a recombinant fusion protein of human Fc and the extracellular domain (amino acids 78-216) of human NKG2D; also called human NKG2D (immobilized); not shown: human Fc
T1 sequence (looked up): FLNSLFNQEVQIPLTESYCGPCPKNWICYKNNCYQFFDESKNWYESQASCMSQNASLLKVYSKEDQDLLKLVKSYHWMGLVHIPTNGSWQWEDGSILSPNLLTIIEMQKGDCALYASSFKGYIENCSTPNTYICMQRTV

T2: human CD22-Fc (human, UniProt P20273 20-687)
T2 construct: Bought from R&D Systems; not shown: Fc part
T2 sequence (looked up): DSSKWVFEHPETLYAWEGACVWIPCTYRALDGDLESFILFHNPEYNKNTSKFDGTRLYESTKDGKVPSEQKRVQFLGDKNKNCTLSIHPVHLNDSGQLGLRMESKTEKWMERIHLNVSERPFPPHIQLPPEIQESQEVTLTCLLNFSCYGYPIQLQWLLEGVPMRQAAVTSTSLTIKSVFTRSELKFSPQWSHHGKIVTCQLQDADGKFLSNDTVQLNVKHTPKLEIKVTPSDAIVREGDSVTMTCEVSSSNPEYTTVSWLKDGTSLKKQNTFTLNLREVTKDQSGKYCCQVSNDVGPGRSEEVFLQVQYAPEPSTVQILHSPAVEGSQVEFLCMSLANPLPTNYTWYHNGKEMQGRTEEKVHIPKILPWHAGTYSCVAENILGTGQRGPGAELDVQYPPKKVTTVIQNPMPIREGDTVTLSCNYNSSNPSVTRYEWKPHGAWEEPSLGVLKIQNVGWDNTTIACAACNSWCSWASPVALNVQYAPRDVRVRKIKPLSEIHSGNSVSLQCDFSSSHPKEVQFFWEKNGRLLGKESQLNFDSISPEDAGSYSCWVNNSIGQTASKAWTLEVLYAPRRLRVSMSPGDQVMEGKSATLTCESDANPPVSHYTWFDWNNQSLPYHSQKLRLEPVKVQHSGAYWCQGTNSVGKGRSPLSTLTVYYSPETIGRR

T3: mouse Fc-NKG2D (mouse, UniProt O54709 94-232, limits assumed)
T3 construct: Bought from R&D Systems; also called mouse NKG2D; not shown: Fc part
T3 sequence (looked up): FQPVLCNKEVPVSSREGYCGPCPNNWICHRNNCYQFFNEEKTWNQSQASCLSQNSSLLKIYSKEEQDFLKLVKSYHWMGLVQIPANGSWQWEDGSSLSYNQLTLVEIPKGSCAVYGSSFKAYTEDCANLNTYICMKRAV

T4: human CD23 (human, UniProt P06734 150-321, limits assumed)
T4 construct: Bought
T4 sequence (looked up): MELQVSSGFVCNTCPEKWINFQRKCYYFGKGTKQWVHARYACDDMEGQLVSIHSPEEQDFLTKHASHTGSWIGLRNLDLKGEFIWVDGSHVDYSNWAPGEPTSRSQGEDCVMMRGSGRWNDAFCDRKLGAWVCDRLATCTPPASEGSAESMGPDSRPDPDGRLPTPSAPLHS

T5: human MICB-Fc (human, UniProt Q29980 23-298, limits assumed)
T5 construct: Bought from R&D Systems; also called recombinant human MICB-Fc; not shown: Fc part (detected with anti-human Fc)
T5 sequence (looked up): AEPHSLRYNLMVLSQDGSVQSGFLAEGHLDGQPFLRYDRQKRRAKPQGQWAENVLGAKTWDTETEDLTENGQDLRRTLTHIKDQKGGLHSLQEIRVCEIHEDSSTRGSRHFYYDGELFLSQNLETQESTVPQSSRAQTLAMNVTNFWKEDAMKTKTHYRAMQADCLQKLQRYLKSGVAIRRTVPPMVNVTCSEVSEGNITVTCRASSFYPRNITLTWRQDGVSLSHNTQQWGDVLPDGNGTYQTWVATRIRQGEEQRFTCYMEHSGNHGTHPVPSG

T6: human MICA-Fc (human, UniProt Q29983 24-307, limits assumed)
T6 construct: Bought from R&D Systems; also called recombinant human MICA-Fc; not shown: Fc part (detected with anti-human Fc)
T6 sequence (looked up): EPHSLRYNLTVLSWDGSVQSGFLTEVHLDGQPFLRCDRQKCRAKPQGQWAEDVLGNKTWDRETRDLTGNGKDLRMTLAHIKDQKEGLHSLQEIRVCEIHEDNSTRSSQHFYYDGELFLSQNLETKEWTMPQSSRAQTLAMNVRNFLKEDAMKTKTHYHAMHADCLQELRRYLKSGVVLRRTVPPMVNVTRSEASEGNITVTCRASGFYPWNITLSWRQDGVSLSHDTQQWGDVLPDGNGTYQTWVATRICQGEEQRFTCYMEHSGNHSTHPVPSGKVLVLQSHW

B1: human ULBP2-Fc (Fc fusion, UniProt Q9BZM5 26-217, looked up)
chain: GRADPHSLCYDITVIPKFRPGPRWCAVQGQVDEKTFLHYDCGNKTVTPVSPLGKKLNVTTAWKAQNPVLREVVDILTEQLRDIQLENYTPKEPLTLQARMSCEQKAEGHSSGSWQFSFDGQIFLLFDSEKRMWTTVHPGARKMKEKWENDKVVAMSFHYFSMGDCIGWLEDFLMGMDSTLEPSAGAPLAMSS
notes: Bought from R&D Systems; also called recombinant human ULBP2-Fc; not shown: Fc part (detected with anti-human Fc)
B2: human NKG2D, cell surface (receptor, UniProt P26718 1-216, looked up)
chain: MGWIRGRRSRHSWEMSEFHNYNLDLKKSDFSTRWQKQRCPVVKSKCRENASPFFFCCFIAVAMGIRFIIMVTIWSAVFLNSLFNQEVQIPLTESYCGPCPKNWICYKNNCYQFFDESKNWYESQASCMSQNASLLKVYSKEDQDLLKLVKSYHWMGLVHIPTNGSWQWEDGSILSPNLLTIIEMQKGDCALYASSFKGYIENCSTPNTYICMQRTV
notes: whole, on cells; also called cell surface human NKG2D

Assays:
human Fc-NKG2D [1] = target: T1, human Fc-NKG2D; experiment: SPR (BIAcore 2000), human Fc-NKG2D immobilized on chip; koff/kon
human Fc-NKG2D [2] = target: T1, human Fc-NKG2D; experiment: SPR (BIAcore 2000), human Fc-NKG2D immobilized on chip
human Fc-NKG2D [3] = target: T1, human Fc-NKG2D
BSA = target: T7, BSA (bovine, UniProt P02769); experiment: ELISA, protein coated at 100 ng/well, Fab detected with goat anti-human Fab-HRP, absorbance at 405 nm
T7 construct: coated on the ELISA plate; also called bovine serum albumin

human CD22-Fc = target: T2, human CD22-Fc; experiment: as above
mouse Fc-NKG2D = target: T3, mouse Fc-NKG2D; experiment: as above
human ULBP2-Fc = target: B1; experiment: as above
human CD23 = target: T4, human CD23; experiment: as above
human Fc-NKG2D [4] = target: T1, human Fc-NKG2D; remark: listed apart in the source
human Fc-NKG2D [5] = target: T1, human Fc-NKG2D; experiment: SPR (BIAcore 2000), human Fc-NKG2D immobilized on chip; remark: listed apart in the source
human Fc-NKG2D [6] = target: T1, human Fc-NKG2D; experiment: SPR (BIAcore 2000), human Fc-NKG2D immobilized on chip; bivalent IgG
human Fc-NKG2D [7] = target: T1, human Fc-NKG2D; experiment: SPR (BIAcore 2000), human Fc-NKG2D immobilized on chip; bivalent binding (virtual affinity, avidity)
[8] = target: B2; experiment: whole-cell ELISA on HEK 293F/human NKG2D, 100 ng ligand-Fc, detected with biotinylated goat anti-human Fc and streptavidin-HRP, absorbance at 405 nm [panel ULBP2]
human MICB-Fc = target: T5, human MICB-Fc; experiment: whole-cell ELISA on HEK 293F/human NKG2D, 100 ng ligand-Fc, detected with biotinylated goat anti-human Fc and streptavidin-HRP, absorbance at 405 nm [panel MICB]
human MICA-Fc = target: T6, human MICA-Fc; experiment: whole-cell ELISA on HEK 293F/human NKG2D, 100 ng ligand-Fc, detected with biotinylated goat anti-human Fc and streptavidin-HRP, absorbance at 405 nm [panel MICA]

T7 sequence (P02769 25-607 limits assumed): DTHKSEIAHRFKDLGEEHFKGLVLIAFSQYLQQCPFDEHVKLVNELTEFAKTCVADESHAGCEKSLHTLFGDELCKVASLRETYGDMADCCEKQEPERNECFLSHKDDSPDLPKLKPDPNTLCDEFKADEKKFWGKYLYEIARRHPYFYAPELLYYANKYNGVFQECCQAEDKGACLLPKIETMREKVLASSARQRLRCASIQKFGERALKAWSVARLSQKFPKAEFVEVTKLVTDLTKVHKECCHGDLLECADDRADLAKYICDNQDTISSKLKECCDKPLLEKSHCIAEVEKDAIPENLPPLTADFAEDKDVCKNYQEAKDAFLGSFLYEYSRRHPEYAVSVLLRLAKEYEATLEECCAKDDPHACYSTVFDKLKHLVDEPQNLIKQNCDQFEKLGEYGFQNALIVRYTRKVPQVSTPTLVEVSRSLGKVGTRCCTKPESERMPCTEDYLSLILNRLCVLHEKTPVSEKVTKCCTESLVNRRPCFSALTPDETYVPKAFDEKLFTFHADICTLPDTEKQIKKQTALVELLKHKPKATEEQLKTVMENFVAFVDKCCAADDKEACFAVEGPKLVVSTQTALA

Row | Binder | Kd (human Fc-NKG2D [1]) [nM] | binding result (BSA) | binding result (human CD22-Fc) | binding result (mouse Fc-NKG2D) | binding result (human ULBP2-Fc) | binding result (human CD23) | koff (human Fc-NKG2D [5]) [s⁻¹] | kon (human Fc-NKG2D [5]) [M⁻¹ s⁻¹] | koff (human Fc-NKG2D [6]) [s⁻¹] | kon (human Fc-NKG2D [6]) [M⁻¹ s⁻¹] | Kd (human Fc-NKG2D [7]) [nM] | also measured
1 | KYK-2.0 Fab (Fab, V domains shown, Human Fab (lambda) with human constant domains and a C-terminal (His)6 tag, expressed in E. coli from pC3C-His and purified by IMAC) VH: QVQLVESGGGLVKPGGSLRLSCAASGFTFSSYGMHWVRQAPGKGLEWVAFIRYDGSNKYYADSVKGRFTISRDNSKNTKYLQMNSLRAEDTAVYYCAKDRGLGDGTYFDYWGQGTTVTVSS VL: QSALTQPASVSGSPGQSITISCSGSSSNIGNNAVNWYQQLPGKAPKLLIYYDDLLPSGVSDRFSGSKSGTSAFLAISGLQSEDEADYYCAAWDDSLNGPVFGGGTKLTVL | 5.8 | no binding (tested: not shown) | no binding (tested: not shown) | no binding (tested: not shown) | no binding (tested: not shown) | no binding (tested: not shown) | 0.0043 | 740000 | – | – | – | fold improvement in affinity (Kd) over KYK-1.0 Fab (human Fc-NKG2D [2]): ~4.5 fold; fold slower dissociation compared to KYK-1.0 Fab (human Fc-NKG2D [2]): ~8.5 fold; Kd (human Fc-NKG2D [3]): 1.9 to 3 nM; koff (human Fc-NKG2D [3]): 0.0012 s⁻¹; kon (human Fc-NKG2D [3]): 450000 M⁻¹ s⁻¹; Kd (human Fc-NKG2D [4]): 1.9 to 3 nM; koff (human Fc-NKG2D [4]): 0.0018 s⁻¹; kon (human Fc-NKG2D [4]): 890000 M⁻¹ s⁻¹
2 | KYK-2.0 IgG1 (antibody, V domains shown, It was biotinylated for flow cytometry on PBMC; also called KYK-2.0 IgG1λ; PIGG-KYK-2.0) VH: QVQLVESGGGLVKPGGSLRLSCAASGFTFSSYGMHWVRQAPGKGLEWVAFIRYDGSNKYYADSVKGRFTISRDNSKNTKYLQMNSLRAEDTAVYYCAKDRGLGDGTYFDYWGQGTTVTVSS VL: QSALTQPASVSGSPGQSITISCSGSSSNIGNNAVNWYQQLPGKAPKLLIYYDDLLPSGVSDRFSGSKSGTSAFLAISGLQSEDEADYYCAAWDDSLNGPVFGGGTKLTVL | – | – | – | – | – | – | – | – | 0.00012 | 320000 | 0.38 | –
3 | KYK-1.0 Fab (Fab, V domains shown, Human Fab with human constant domains (lambda light chain) and a C-terminal (His)6 tag, expressed in E. coli from pC3C-His and purified by IMAC) VH: EVQLVESGGGVVQPGGSLRLSCAASGFTFSSYGMHWVRQAPGKGLEWVAFIRYDGSNKYYADSVKGRFTISRDNSKNTKYLQMNSLRAEDTAVYYCAKDRFGYYLDYWGQGTLVTVSS VL: QPVLTQPSSVSVAPGETARIPCGGDDIETKSVHWYQQKPGQAPVLVIYDDDDRPSGIPERFFGSNSGNTATLSISRVEAGDEADYYCQVWDDNNDEWVFGGGTQLTVL | 27 | no binding (tested: not shown) | no binding (tested: not shown) | no binding (tested: not shown) | no binding (tested: not shown) | no binding (tested: not shown) | 0.037 | 1.4e+06 | – | – | – | –
4 | KYK-1.0 IgG1 (antibody, V domains shown, Fully human IgG1 lambda; also called KYK-1.0 IgG1λ; PIGG-KYK-1.0) VH: EVQLVESGGGVVQPGGSLRLSCAASGFTFSSYGMHWVRQAPGKGLEWVAFIRYDGSNKYYADSVKGRFTISRDNSKNTKYLQMNSLRAEDTAVYYCAKDRFGYYLDYWGQGTLVTVSS VL: QPVLTQPSSVSVAPGETARIPCGGDDIETKSVHWYQQKPGQAPVLVIYDDDDRPSGIPERFFGSNSGNTATLSISRVEAGDEADYYCQVWDDNNDEWVFGGGTQLTVL | – | – | – | – | – | – | – | – | 0.00056 | 310000 | 1.8 | –
5 | B1 | – | – | – | – | – | – | – | – | – | – | – | binding result [8]: binds
6 | B2 | – | – | – | – | – | – | – | – | – | – | – | binding result (human MICB-Fc): binds; binding result (human MICA-Fc): binds
